± gives the standard error. This sample holds only a part of the variants without activity.
B1: glmS ribozyme (parent)
chain: AUAAAAGCGCCAGAACUACAGAAAUGUAGUUGACGAGGAGGAGGUUUAUCGAAUUUUCGGCGGAUGCCUCCAAA

Key:
Details in all cases: with glucosamine-6-phosphate
glucosamine-6-phosphate [1] = variants of: B1; assay: self-cleavage kobs at 40 uM GlcN6P; higher = faster cleavage; RNA array
In short: (§1)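 Barcoded ribozyme variants on sequenced MiSeq chips were transcribed in situ by E. coli RNA polymerase and followed at 37 °C through a hybridised Cy3 probe. Glucosamine-6-phosphate at 40 μM to 10 mM in HEPES/KCl/Mg(OAc)2 buffer was flowed in, and tiles were imaged over ~14 h. Signals were normalised to baseline and to non-cleaving reference variants, and per-tile medians were fit to one- or two-exponential decays to give kobs. Weighted Michaelis–Menten fits across concentrations gave kcat and KM.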

glucosamine-6-phosphate [2] = variants of: B1; assay: self-cleavage kobs at 160 uM GlcN6P; higher = faster cleavage; RNA array
In short: as §1

glucosamine-6-phosphate [3] = variants of: B1; assay: self-cleavage kobs at 10000 uM GlcN6P; higher = faster cleavage; RNA array
In short: as §1

glucosamine-6-phosphate [4] = variants of: B1; assay: self-cleavage kobs at 2500 uM GlcN6P; higher = faster cleavage; RNA array
In short: as §1

glucosamine-6-phosphate [5] = variants of: B1; assay: self-cleavage kobs at 640 uM GlcN6P; higher = faster cleavage; RNA array
In short: as §1

Row | Variant | self-cleavage kobs at 40 uM GlcN6P (glucosamine-6-phosphate [1]) | self-cleavage kobs at 160 uM GlcN6P (glucosamine-6-phosphate [2]) | self-cleavage kobs at 10000 uM GlcN6P (glucosamine-6-phosphate [3]) | self-cleavage kobs at 2500 uM GlcN6P (glucosamine-6-phosphate [4]) | self-cleavage kobs at 640 uM GlcN6P (glucosamine-6-phosphate [5])
1 | A12G G32A | < 1e-05 s⁻¹ | < 1e-05 s⁻¹ | 5.21e-05 ± 7.4e-06 s⁻¹ |  | 
2 | G51U G63U A64C | < 1e-05 s⁻¹ |  |  | < 1e-05 s⁻¹ | 
3 | C10U A14U C16G | < 1e-05 s⁻¹ |  |  |  | 
4 | A12U G40A U45C | 6.12e-05 ± 2e-05 s⁻¹ |  | 0.00175 ± 0.0003 s⁻¹ |  | 
5 | G35U C58U | < 1e-05 s⁻¹ | < 1e-05 s⁻¹ | < 1e-05 s⁻¹ | < 1e-05 s⁻¹ | 
6 | G41C C50U | < 1e-05 s⁻¹ |  | < 1e-05 s⁻¹ | < 1e-05 s⁻¹ | < 1e-05 s⁻¹
7 | A42G U55G G59C | < 1e-05 s⁻¹ |  |  | < 1e-05 s⁻¹ | 
8 | G29C G35U C58U | < 1e-05 s⁻¹ |  |  |  | 
9 | A14C U31A U54A | 0.000186 ± 4.9e-05 s⁻¹ |  | 0.0192 ± 0.0058 s⁻¹ |  | 
10 | A14G A39G G41A U55G U69C A73U | < 1e-05 s⁻¹ |  |  |  | 
11 | C8U A33U G66C | < 1e-05 s⁻¹ |  |  |  | 
12 | A6U A33U | < 1e-05 s⁻¹ |  | < 1e-05 s⁻¹ | < 1e-05 s⁻¹ | < 1e-05 s⁻¹
13 | C11U G41C U45A C71G | < 1e-05 s⁻¹ | < 1e-05 s⁻¹ |  | < 1e-05 s⁻¹ | 
14 | U30A A39U G63U | < 1e-05 s⁻¹ |  |  | < 1e-05 s⁻¹ | < 1e-05 s⁻¹
15 | A14U G35C A42C | < 1e-05 s⁻¹ | < 1e-05 s⁻¹ |  |  | 
16 | G37U G41A | < 1e-05 s⁻¹ | < 1e-05 s⁻¹ | < 1e-05 s⁻¹ |  | < 1e-05 s⁻¹
17 | G51C G63A | < 1e-05 s⁻¹ | < 1e-05 s⁻¹ |  | < 1e-05 s⁻¹ | 
18 | G9A C70A | < 1e-05 s⁻¹ | < 1e-05 s⁻¹ | < 1e-05 s⁻¹ | < 1e-05 s⁻¹ | < 1e-05 s⁻¹
19 | C11U U65A | < 1e-05 s⁻¹ |  |  | 9.22e-05 ± 2e-05 s⁻¹ | 0.000121 ± 3.6e-05 s⁻¹
20 | G40C U49C | < 1e-05 s⁻¹ |  | < 1e-05 s⁻¹ | < 1e-05 s⁻¹ | < 1e-05 s⁻¹
21 | A14U G32C C50A C68G | 8.36e-05 ± 3e-05 s⁻¹ |  | 7.34e-05 ± 2.2e-05 s⁻¹ | 0.000126 ± 6e-05 s⁻¹ | 0.000278 ± 7.7e-05 s⁻¹
22 | U31G A42G | 0.00033 ± 8.8e-05 s⁻¹ |  | 0.0263 ± 0.0086 s⁻¹ | 0.00724 ± 0.0018 s⁻¹ | 0.00343 ± 0.0011 s⁻¹
23 | A6G C16U G32C G41U C68U | < 1e-05 s⁻¹ |  | < 1e-05 s⁻¹ | < 1e-05 s⁻¹ | < 1e-05 s⁻¹

— the supplement of paper PMC7125110
